In PMC12159748:

Key:
[1] = test system: MBP-P6.9 NA-FLAG (7A, hypo-phosphorylation mimic) (Autographa californica multiple nucleopolyhedrovirus (AcMNPV)); test: fluorescence polarization; settings: FP: 50 mM HEPES pH 7.5, 0.005% sarcosyl, 100 mM NaCl, 0.5 mM EDTA, 1 mM DTT, 20 nM DNA, 1 h at 4 C, EMSA: 50 mM Tris pH 7.4, 100 mM NaCl, 1 mM EDTA
[2] = test system: MBP-P6.9 NE-FLAG (7E, hyper-phosphorylation mimic) (Autographa californica multiple nucleopolyhedrovirus (AcMNPV)); test: fluorescence polarization; settings: FP: 50 mM HEPES pH 7.5, 0.005% sarcosyl, 100 mM NaCl, 0.5 mM EDTA, 1 mM DTT, 20 nM DNA, 1 h at 4 C, EMSA: 50 mM Tris pH 7.4, 100 mM NaCl, 1 mM EDTA

## 39-bp DNA
[1]
  Kd: 450 nM
[2]
  Kd: 1750 nM
